Results reported in PMC10708208 (Science Advances, 2023).
Where two headings read alike, the source gives them in different places.

B1: SipA^α (SipA_(497–669)) (domain or fragment)
chain: NKAGTTDNDNSQTDKTGPFSGLKFKQNSFLSTVPSVTNMHSMHFDARETFLGVIRKALEPDTSTPFPVRRAFDGLRAEILPNDTIKSAALKAQCSDIDKHPELKAKMETLKEVITHHPQKEKLAEIALQFAREAGLTRLKGETDYVLSNVLDGLIGDGSWRAGPAYESYLNKP
B2: SipA^β (SipA_(426–685)) (domain or fragment)
chain: GETTSFDEVDGVTSKSIIGKPVQATVHGVDDNKQQSQTAEIVNVKPLASQLAGVENVKTDTLQSDTTVITGNKAGTTDNDNSQTDKTGPFSGLKFKQNSFLSTVPSVTNMHSMHFDARETFLGVIRKALEPDTSTPFPVRRAFDGLRAEILPNDTIKSAALKAQCSDIDKHPELKAKMETLKEVITHHPQKEKLAEIALQFAREAGLTRLKGETDYVLSNVLDGLIGDGSWRAGPAYESYLNKPGVDRVITTVDGLHMQR

Columns and labels:
[1] = biological target: T1, F-actin (cryo-EM samples) ( (chicken and rabbit muscle …, UniProt P68139 1-377)); test: cryo-EM structure
[2] = biological target: T1, F-actin (cryo-EM samples); test: cryo-EM structure; remark: listed apart in the source

Binder | stoichiometry N [1] | stoichiometry N [2]
B1 | 0.5 SipA per actin subunit (molar ratio) | –
B2 | – | 0.5 SipA per actin subunit (molar ratio)
